The conditions of series [1]: fluorescein alone, single i.v. injection, analysis of literature data (Chahal et al.); cited from earlier work.
Another series deals with T1, Rat serum albumin (Rat, UniProt P02770 25-608).
T1 construct: also called RSA
Kind of series: biolayer interferometry, cross reactivity pattern (graded strength of binding).

For another series, the target named is T2, Mouse serum albumin (Mouse, UniProt P07724 25-608).
T2 construct: also called MSA
Described as above.

Series [2] concerns the target T3, Cynomolgus monkey serum albumin (Cynomolgus monkey, UniProt A2V9Z4 25-608).
T3 construct: also called CSA
The series is described as above.

For a further series, the target named is T4, Rabbit serum albumin (Rabbit, UniProt P49065 25-608).
T4 construct: also called RabSA; RabSa
T4 sequence (P49065 25-608 limits assumed): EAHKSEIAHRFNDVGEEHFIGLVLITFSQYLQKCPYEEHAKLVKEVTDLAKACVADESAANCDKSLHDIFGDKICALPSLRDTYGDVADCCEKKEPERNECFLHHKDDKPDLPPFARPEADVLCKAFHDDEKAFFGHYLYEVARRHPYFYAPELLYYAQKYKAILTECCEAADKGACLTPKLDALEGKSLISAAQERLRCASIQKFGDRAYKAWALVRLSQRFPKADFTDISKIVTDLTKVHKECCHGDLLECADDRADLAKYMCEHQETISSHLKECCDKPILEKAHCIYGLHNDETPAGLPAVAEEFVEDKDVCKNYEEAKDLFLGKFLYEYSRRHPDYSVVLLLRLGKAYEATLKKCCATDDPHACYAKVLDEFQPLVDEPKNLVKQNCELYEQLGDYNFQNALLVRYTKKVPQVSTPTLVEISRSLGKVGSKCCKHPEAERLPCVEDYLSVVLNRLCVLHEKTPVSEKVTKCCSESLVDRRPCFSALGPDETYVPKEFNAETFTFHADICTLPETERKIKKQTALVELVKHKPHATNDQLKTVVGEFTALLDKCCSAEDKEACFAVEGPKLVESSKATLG
Kind of series: biolayer interferometry, cross reactivity on albumins of different species; legend: '-' symbol refers to an absence of detectable binding.

The target of series [3] is T5, human serum albumin domain III (aa381-585) (human, UniProt P02768 405-609).
T5 construct: range 381-585; The residue numbers probably count on mature albumin (585 residues)
Kind of series: biolayer interferometry, His-tagged F06 on Ni-NTA biosensors, albumin domain at 250 nM, response at 180 s. The text has this: (§1) The albumin is described as having three domains, dubbed domain I, II and III. Interaction of the albumin with the FcRn receptor involves domain I and III. Domain I (aa1-197), domain II (aa189-385), and domain III (aa381-585) and Domain I-II (aa1-385) were obtained from Albumin Bioscience. Interaction of the anti-albumin Nanofitins with the different domains was investigated by biolayer interferometry according to the following procedure. […] The sensors were then allowed to equilibrate for 60 sec in protein free blocking buffer (Thermo Scientific) supplemented with 0.002% of tween20.

Series [4] deals with T6, human serum albumin Domain I (aa1-197) (human, UniProt P02768 25-221).
T6 construct: range 1-197; Domain III ends at 585, so they probably count on mature albumin (585 residues) and not on the precursor entry
The description is as above.
Description: as §1

The target in a further series is T7, human serum albumin (human, UniProt P02768 25-609, biotinylated (sites not given) in the biolayer interferometry of Example 1).
T7 construct: Biotinylated HSA immobilised on streptavidin biosensors; also called HSA
In words: biolayer interferometry (octet red96); biotinylated HSA on streptavidin biosensors, Nanofitin 15.6-1000 nM.

Results on three molecules are retold here after patent US20240124531A1, “COMPOUNDS AND METHODS FOR EXTENDING HALF LIFE OF BIOMOLECULES” (AFFILOGIC, priority 2021, published 2024).

T2 sequence (P07724 25-608 limits assumed): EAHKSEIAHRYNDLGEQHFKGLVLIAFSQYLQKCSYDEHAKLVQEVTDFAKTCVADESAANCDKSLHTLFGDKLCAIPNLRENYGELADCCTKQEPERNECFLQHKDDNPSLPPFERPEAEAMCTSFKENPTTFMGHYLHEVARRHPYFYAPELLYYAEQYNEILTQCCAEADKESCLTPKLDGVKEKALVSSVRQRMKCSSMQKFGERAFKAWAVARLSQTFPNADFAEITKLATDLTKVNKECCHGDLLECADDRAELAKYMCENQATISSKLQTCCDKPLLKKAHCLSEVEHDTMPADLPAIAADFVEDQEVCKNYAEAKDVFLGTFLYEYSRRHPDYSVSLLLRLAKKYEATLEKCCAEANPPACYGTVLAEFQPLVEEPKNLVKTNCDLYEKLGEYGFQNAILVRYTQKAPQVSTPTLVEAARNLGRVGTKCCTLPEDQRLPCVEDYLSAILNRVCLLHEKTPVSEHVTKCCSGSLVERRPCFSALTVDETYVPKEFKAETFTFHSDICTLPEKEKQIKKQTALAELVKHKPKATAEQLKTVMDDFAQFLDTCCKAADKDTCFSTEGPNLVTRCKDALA
T3 sequence (A2V9Z4 25-608 limits assumed): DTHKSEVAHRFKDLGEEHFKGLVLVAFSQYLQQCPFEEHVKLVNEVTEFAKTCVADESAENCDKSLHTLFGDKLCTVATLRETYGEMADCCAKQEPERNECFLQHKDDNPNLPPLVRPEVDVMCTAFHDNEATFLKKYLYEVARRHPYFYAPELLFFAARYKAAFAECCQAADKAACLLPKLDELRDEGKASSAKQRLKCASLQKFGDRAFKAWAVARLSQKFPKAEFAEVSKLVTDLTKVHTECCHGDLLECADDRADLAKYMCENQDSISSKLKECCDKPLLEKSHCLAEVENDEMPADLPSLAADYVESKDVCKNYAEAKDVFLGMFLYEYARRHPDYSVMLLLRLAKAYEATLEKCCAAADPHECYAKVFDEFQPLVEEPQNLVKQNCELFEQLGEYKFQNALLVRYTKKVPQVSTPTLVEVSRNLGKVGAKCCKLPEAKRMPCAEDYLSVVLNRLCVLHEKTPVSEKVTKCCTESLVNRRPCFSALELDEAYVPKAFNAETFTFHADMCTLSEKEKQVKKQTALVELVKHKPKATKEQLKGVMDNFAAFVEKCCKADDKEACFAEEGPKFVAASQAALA
T1 sequence (P02770 25-608 limits assumed): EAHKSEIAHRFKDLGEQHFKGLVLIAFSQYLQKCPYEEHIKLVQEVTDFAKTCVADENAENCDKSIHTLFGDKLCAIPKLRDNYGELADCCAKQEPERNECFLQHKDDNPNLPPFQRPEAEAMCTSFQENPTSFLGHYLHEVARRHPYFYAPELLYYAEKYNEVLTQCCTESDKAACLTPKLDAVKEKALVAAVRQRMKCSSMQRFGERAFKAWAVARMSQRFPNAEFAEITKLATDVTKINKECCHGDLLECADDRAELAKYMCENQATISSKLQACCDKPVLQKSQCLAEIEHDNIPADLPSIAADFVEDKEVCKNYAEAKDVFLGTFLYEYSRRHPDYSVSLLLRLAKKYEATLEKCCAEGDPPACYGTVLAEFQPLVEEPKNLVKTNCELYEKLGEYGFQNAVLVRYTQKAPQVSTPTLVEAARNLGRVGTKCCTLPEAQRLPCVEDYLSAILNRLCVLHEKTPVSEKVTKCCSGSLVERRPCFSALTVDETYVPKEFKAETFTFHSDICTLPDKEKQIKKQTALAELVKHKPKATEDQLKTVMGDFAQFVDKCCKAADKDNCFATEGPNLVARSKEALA

With `O=C1OC2(c3ccc(O)cc3Oc3cc(O)ccc32)c2ccccc21` [Fluorescein], the “t1/2 in mouse serum” value in series [1] is reported as “about 8 min”.

B1: Nanofitin B11 (designed binder)
chain: VKVKFWPRGEEKVVDTSKIAWVLRADKTVMFKYDDNGKKGYGVVLEKDAPKELLDMLARAEREK
notes: Variant of Sac7d; also called anti-albumin Nanofitin
Take B1: the binding result in the series with Rat serum albumin is reported as “binds”; with Mouse serum albumin it was “binds”; in series [2], “binds”; in the series with Rabbit serum albumin, “no binding”.

B2: Nanofitin F06 (designed binder)
chain: VKVKFVFSGEEKEVETSKIKWVLRWGKAVGFKYDDQGKIGYGFVAEKDAPKELLDMLARAEREK
notes: also called anti-albumin Nanofitin
Take B2: the results for the binding result (in series [3]; in series [4]; with Rabbit serum albumin) were “no binding (tested: 250 nM)”, “no binding (tested: 250 nM)” and “no binding”, respectively. The molecule also displayed a Kd with human serum albumin of 8.38 nM. Also, in the series with human serum albumin, the koff was found to be 0.000304 s⁻¹.
